Reference: patent US20070298412A1 (ZAKRYTOE AKTSIONERNOE OBSCHESTVO EVROGEN, published 2007)
Positions count from the first letter of the chain named. Numbers in names are those of the source.

B1: phiYFP, yellow fluorescent protein from Phialidium sp. (wild type) (other)
chain: MSSGALLFHGKIPYVVEMEGNVDGHTFSIRGKGYGDASVGKVDAQFICTTGDVPVPWSTLVTTLTYGAQCFAKYGPELKDFYKSCMPEGYVQERTITFEGDGVFKTRAEVTFENGSVYNRVKLNGQGFKKDGHVLGKNLEFNFTPHCLYIWGDQANHGLKSAFKIMHEITGSKEDFIVADHTQMNTPIGGGPVHVPEYHHITYHVTLSKDVTDHRDNMSLVETVRAVDCRKTYL
notes: Recombinant protein from the whole coding region, expressed in E. coli and purified on TALON; Found to be a homodimer by gel electrophoresis of non-heated samples and by gel filtration; not shown: N-terminal six-histidine tag from the pQE30 vector
B2: phiYFP-Y1 (phiYFP mutant with S2P, E174G, I201M) (other)
chain: B1 chain with S2P, E174G, I201M
notes: Found to be a homodimer
B3: phiYFP-M1 (phiYFP mutant with E88D, V103N, M166C, E174G, I201M, T202S, T206K, V221K) (other)
chain: B1 chain with E88D, V103N, M166C, E174G, I201M, T202S, T206K, V221K
notes: No tag is stated for the gel-filtration sample
B4: phiYFP-M0 (phiYFP mutant with S2P, V103N, M166R, E174G, Y198N, I201M, T202S, T206K, V221K) (other)
chain: B1 chain with S2P, V103N, M166R, E174G, Y198N, I201M, T202S, T206K, V221K
notes: No tag is stated for the tested sample
B5: S3-2 red fluorescent mutant of hm2CP (other)
chain: MEGGPALFQSDMTFKIFIDGVVNGQKFTIVADGSSKFPHGDFNVHAVCETGKLPMSWKPICHLIQYGEPFFARYPNGISHFAQECFPEGLSIDRTVRFENDGTMTSHHTYELDGTCVVSRITVNCDGFQPDGPIMRDQLVDILPNETHMFPHGPNAVRQLAFIGFTTADGGLMMSHFDSKMTFNGSRAIKIPGPHFVTTITKQMKDTSDKRDHVCQREVTYAHSVPRITSAI
notes: No tag is stated for the gel-filtration sample; also called S3-2 red fluorescent protein

Assays:
[1] = molecular target: the molecule itself; test: gel electrophoresis of non-heated samples and gel filtration on Sephadex-100 (homodimer)
Method: Under these conditions these FPs migrated as yellow fluorescent band at about 50 kDa. […] Purified protein samples (˜1 mg/ml) were loaded onto a Sephadex-100 column (0.7×60 cm) and eluted with a solution of 50 mM phosphate buffer (pH 7.0) and 100 mM NaCl. EGFP, HcRed1 and DsRed2 (Clontech) were used as monomer, dimer and tetramer standards, respectively.

[2] = molecular target: the molecule itself; test: gel filtration (self-association)

Protein | binding result [1] | binding result [2]
B1 | binds | –
B2 | binds | –
B3 | – | no binding
B4 | – | no binding
B5 | – | no binding
